Test results as given in patent publication US20150232557A1 (APTEVO RESEARCH AND DEVELOPMENT, published 2015).

B1: TSC194 (huVL-VH#2 107-1A4 scFv-Fc-Cris7 scFv) (bispecific antibody)
chain: DIQMTQSPSAMSASVGDRVTITCRASKSISKYLAWFQQKPGKVPKLRIHSGSTLQSGVPSRFSGSGSGTEFTLTISSLQPEDFATYYCQQHIEYPWTFGQGTKVEIKRGGGGSGGGGSGGGGSQVQLVQSGAEVKKPGASVKVSCKASGYTFTDYYMHWVRQAPGQGLEWMGYFNPYNDYTRYAQKFQGRVTMTRDTSISTAYMELSSLRSDDTAVYYCARSDGYYDAMDYWGQGTTVTVSSSEPKSSDKTHTCPPCPAPEAAGAPSVFLFPPKPKDTLMISRTPEVTCVVVDVSHEDPEVKFNWYVDGVEVHNAKTKPREEQYNSTYRVVSVLTVLHQDWLNGKAYACAVSNKALPAPIEKTISKAKGQPREPQVYTLPPSRDELTKNQVSLTCLVKGFYPSDIAVEWESNGQPENNYKTTPPVLDSDGSFFLYSKLTVDKSRWQQGNVFSCSVMHEALHNHYTQKSLSLSPGQRHNNSSLNTGTQMAGHSPNSQVQLVQSGGGVVQPGRSLRLSCKASGYTFTRSTMHWVRQAPGKGLEWIGYINPSSAYTNYNQKFKDRFTISADKSKSTAFLQMDSLRPEDTGVYFCARPQVHYDYNGFPYWGQGTPVTVSSGGGGSGGGGSGGGGSAQDIQMTQSPSSLSASVGDRVTMTCSASSSVSYMNWYQQKPGKAPKRWIYDSSKLASGVPARFSGSGSGTDYTLTISSLQPEDFATYYCQQWSRNPPTFGGGTKLQITR
B2: TSC228 (HD37 x DRA222 scFv heterodimer) (bispecific antibody)
chain 1: DIVLTQSPASLAVSLGQRATISCKASQSVDYDGDSYLNWYQQIPGQPPKLLIYDASNLVSGIPPRFSGSGSGTDFTLNIHPVEKVDAATYHCQQSTEDPWTFGGGTKLEIKGGGGSGGGGSGGGGASQVQLQQSGAELVRPGSSVKISCKASGYAFSSYWMNWVKQRPGQGLEWIGQIWPGDGDTNYNGKFKGKATLTADESSSTAYMQLSSLASEDSAVYFCARRETTTVGRYYYAMDYWGQGTSVTVSSSEPKSSDKTHTCPPCPAPEAAGAPSVFLFPPKPKDTLMISRTPEVTCVVVDVSHEDPEVKFNWYVDGVEVHNAKTKPREEQYNSTYRVVSVLTVLHQDWLNGKAYACAVSNKALPAPIEKTISKAKGQPREPQVYTLPPSRDELTKNQVSLTCLVKGFYPSDIAVEWESNGQPENNYKTTPPVLDSDGSFFLYSKLTVDKSRWQQGNVFSCSVMHEALHNHYTQKSLSLSPGKSRASTKGPSVFPLAPSSKSTSGGTAALGCLVKDYFPEPVTVSWNSGALTSGVHTFPAVLQSSGLYSLSSVVTVPSSSLGTQTYICNVNHKPSNTKVDKKV
chain 2: QVQLVESGGGVVQPGRSLRLSCKASGYTFTRSTMHWVRQAPGQGLEWIGYINPSSAYTNYNQKFKDRFTISADKSKSTAFLQMDSLRPEDTGVYFCARPQVHYDYNGFPYWGQGTPVTVSSGGGGSGGGGSGGGGSAQDIQMTQSPSSLSASVGDRVTMTCSASSSVSYMNWYQQKPGKAPKRWIYDSSKLASGVPARFSGSGSGTDYTLTISSLQPEDFATYYCQQWSRNPPTFGGGTKLQITSSSEPKSSDKTHTCPPCPAPEAAGAPSVFLFPPKPKDTLMISRTPEVTCVVVDVSHEDPEVKFNWYVDGVEVHNAKTKPREEQYNSTYRVVSVLTVLHQDWLNGKAYACAVSNKALPAPIEKTISKAKGQPREPQVYTLPPSRDELTKNQVSLTCLVKGFYPSDIAVEWESNGQPENNYKTTPPVLDSDGSFFLYSKLTVDKSRWQQGNVFSCSVMHEALHNHYTQKSLSLSPGKSRTVAAPSVFIFPPSDEQLKSGTASVVCLLNYFYPREAKVQWKVDNALQSGNSQESATEQDSKDSTYSLSSELTLSKADYEKHKVYACEVTHQGLSSPVTKSFNRGE
notes: TSC049 is HD37 scFv-hinge-CH2-CH3-CH1; TSC222 is DRA222 scFv-hinge-CH2-CH3-CK(YAE); also called anti-CD19 x anti-CD3 bispecific polypeptide heterodimer; TSC049 + TSC222
B3: humanized TSC249 Scorpion (huVL-VH#2 107-1A4 scFv-Fc-DRA222 scFv) (bispecific antibody)
chain: DIQMTQSPSAMSASVGDRVTITCRASKSISKYLAWFQQKPGKVPKLRIHSGSTLQSGVPSRFSGSGSGTEFTLTISSLQPEDFATYYCQQHIEYPWTFGQGTKVEIKRGGGGSGGGGSGGGGSQVQLVQSGAEVKKPGASVKVSCKASGYTFTDYYMHWVRQAPGQGLEWMGYFNPYNDYTRYAQKFQGRVTMTRDTSISTAYMELSSLRSDDTAVYYCARSDGYYDAMDYWGQGTTVTVSSSEPKSSDKTHTCPPCPAPEAAGAPSVFLFPPKPKDTLMISRTPEVTCVVVDVSHEDPEVKFNWYVDGVEVHNAKTKPREEQYNSTYRVVSVLTVLHQDWLNGKAYACAVSNKALPAPIEKTISKAKGQPREPQVYTLPPSRDELTKNQVSLTCLVKGFYPSDIAVEWESNGQPENNYKTTPPVLDSDGSFFLYSKLTVDKSRWQQGNVFSCSVMHEALHNHYTQKSLSLSPGQRHNNSSLNTGTQMAGHSPNSQVQLVESGGGVVQPGRSLRLSCKASGYTFTRSTMHWVRQAPGQGLEWIGYINPSSAYTNYNQKFKDRFTISADKSKSTAFLQMDSLRPEDTGVYFCARPQVHYDYNGFPYWGQGTPVTVSSGGGGSGGGGSGGGGSAQDIQMTQSPSSLSASVGDRVTMTCSASSSVSYMNWYQQKPGKAPKRWIYDSSKLASGVPARFSGSGSGTDYTLTISSLQPEDFATYYCQQWSRNPPTFGGGTKLQITSSS
notes: also called anti-PSMA x anti-CD3 bispecific polypeptide homodimer

Key:
CD3 [1] = target: T1, CD3 (human, UniProt P07766 23-207); test: cell-based or functional assay
CD3 [2] = target: T1, CD3; test: flow cytometry on Jurkat (CD3+) cells, goat anti-human IgG-FITC detection
Method: Jurkat (CD3⁺) T cell leukemia cells were obtained from ATCC (Manassas, Va.), and cultured according to the protocol provided by ATCC. Binding was assessed by incubating 5×10⁵ Jurkat cells for 30 minutes at 4° C. with serially diluted bispecific molecules TSC228 or TSC249, in concentrations from 250 nM to 0.125 nM (TSC249) or 125 nM to 1 pM (TSC228). The cells were washed three times and then incubated with goat anti-human IgG-FITC (1:200 dilution) for another 30 minutes at 4° C. The cells were then washed again three times, fixed in 1% paraformaldehyde and read on a FACS-Calibur instrument.

T1 sequence (P07766 23-207): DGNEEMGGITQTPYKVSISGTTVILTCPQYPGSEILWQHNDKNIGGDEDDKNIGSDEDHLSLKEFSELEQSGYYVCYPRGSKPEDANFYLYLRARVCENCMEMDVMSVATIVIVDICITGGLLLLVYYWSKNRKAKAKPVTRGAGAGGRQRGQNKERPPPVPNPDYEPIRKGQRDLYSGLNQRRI

| Binder | EC50 for RTCC (CD3 [1]) | EC50 (CD3 [2]) |
| --- | --- | --- |
| B1 | 0.0028 nM |  |
| B2 |  | 24.5 nM |
| B3 | 0.0029 nM | 1.9 nM |
